The text below walks through data of US20250092108A1 (published 2025).

T1: human CD25 (IL-2Rα) (human, UniProt P01589 22-213)
T1 chain: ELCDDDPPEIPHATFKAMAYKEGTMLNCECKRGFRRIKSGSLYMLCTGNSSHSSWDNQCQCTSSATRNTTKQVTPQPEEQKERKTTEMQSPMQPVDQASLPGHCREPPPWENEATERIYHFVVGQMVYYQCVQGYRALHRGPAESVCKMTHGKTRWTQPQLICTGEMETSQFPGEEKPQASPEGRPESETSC

B1: XENP14277 (prior art IL-2 variant, mutant 2-4 with Q126T as described in WO 2009/061853, without R38L) (ligand)
chain: APTSSSTKKTQLQLEHLLLDLQMILNGISNHKNPRLARMLTFKFYMPEKATELKHLQCLEEELKPLEEALRLAPSKNFHLRPRDLISDVNVIVLELKGSETTFMCEYADETATIVEFLNRWITFSTSIISTLTHHHHHHHH
B2: XENP14381 (prior art IL-2 variant, mutant 2-4 with Q126T, with R38L) (ligand)
chain: B1 chain with R38L
B3: CD25 (receptor)
chain: T1 chain
B4: XENP26109 (Fc fusion)
chain 1: EPKSSDKTHTCPPCPAPPVAGPSVFLFPPKPKDTLMISRTPEVTCVVVDVKHEDPEVKFNWYVDGVEVHNAKTKPREEEYNSTYRVVSVLTVLHQDWLNGKEYKCKVSNKALPAPIEKTISKAKGQPREPQVYTLPPSREEMTKNQVSLTCDVSGFYPSDIAVEWESDGQPENNYKTTPPVLDSDGSFFLYSKLTVDKSRWEQGDVFSCSVMHEALHNHYTQKSLSLSPGK
chain 2: APASSSTKKTQLQLEHLLLNLQMILNGINNYKNPKLTRMLTFKFYMPKKATELKHLQCLEEELKPLEEVLKLAQSKNFHLRPRDLISNINVIVLELKGSETTFMCEYADETATIVEFLNRWITFSQSIISTLTEPKSSDKTHTCPPCPAPPVAGPSVFLFPPKPKDTLMISRTPEVTCVVVDVKHEDPEVKFNWYVDGVEVHNAKTKPREEQYNSTYRVVSVLTVLHQDWLNGKEYKCKVSNKALPAPIEKTISKAKGQPREPQVYTLPPSREQMTKNQVKLTCLVKGFYPSDIAVEWESNGQPENNYKTTPPVLDSDGSFFLYSKLTVDKSRWQQGNVFSCSVMHEALHNHYTQKSLSLSPGK
B5: XENP26105 (Fc fusion)
chain 1: B4 chain 1
chain 2: B4 chain 2 with T37R, K71N
B6: 14192 R38E T41K C125S (protein)
chain: APTSSSTKKTQLQLEHLLLDLQMILNGINNYKNPKLTEMLKFKFYMPKKATELKHLQCLEEELKPLEEVLNLAQSKNFHLRPRDLISNINVIVLELKGSETTFMCEYADETATIVEFLNRWITFSQSIISTLT
B7: 14215 R38N T41K C125S (protein)
chain: B6 chain with E38N
B8: 14191 R38Q T41Q C125S (protein)
chain: B6 chain with E38Q, K41Q
B9: 14208 T41M F42Y C125S (protein)
chain: B6 chain with E38R, K41M, F42Y
B10: 14213 R38Q F42Y C125S (protein)
chain: B6 chain with E38Q, K41T, F42Y
B11: XENP14207 (T41D F42Y C125S) (protein)
chain: B6 chain with E38R, K41D, F42Y
B12: 14217 R38P T41R C125S (protein)
chain: B6 chain with E38P, K41R
B13: XENP14213 (R38Q F42Y C125S) (protein)
chain: B6 chain with E38Q, K41T, F42Y
B14: 14202 R38Q T41S C125S (protein)
chain: B6 chain with E38Q, K41S
B15: 14193 R38Q T41R C125S (protein)
chain: B6 chain with E38Q, K41R
B16: 14209 T41Q F42Y C125S (protein)
chain: B6 chain with E38R, K41Q, F42Y
B17: 14206 T41E F42Y C125S (protein)
chain: B6 chain with E38R, K41E, F42Y
B18: XENP14214 (R38N T41R C125S) (protein)
chain: B6 chain with E38N, K41R
B19: XENP14208 (T41M F42Y C125S) (protein)
chain: B6 chain with E38R, K41M, F42Y
B20: 14190 R38Q T41K C125S (protein)
chain: B6 chain with E38Q
B21: 14207 T41D F42Y C125S (protein)
chain: B6 chain with E38R, K41D, F42Y
B22: 14216 R38V T41R C125S (protein)
chain: B6 chain with E38V, K41R
B23: XENP14216 (R38V T41R C125S) (protein)
chain: B6 chain with E38V, K41R
B24: XENP14206 (T41E F42Y C125S) (protein)
chain: B6 chain with E38R, K41E, F42Y
B25: XENP14217 (R38P T41R C125S) (protein)
chain: B6 chain with E38P, K41R
B26: 14214 R38N T41R C125S (protein)
chain: B6 chain with E38N, K41R
B27: XENP14209 (T41Q F42Y C125S) (protein)
chain: B6 chain with E38R, K41Q, F42Y
B28: 14194 R38N T41Q C125S (protein)
chain: B6 chain with E38N, K41Q
B29: 24638 (Fc fusion)
chain: APTSSSTKKTQLQLEHLLLDLQMILNGISNHKNPRLARMLTFKFYMPEKATELKHLQCLEEELKPLEEALRLAPSKNFHLRPRDLISDVNVIVLELKGSETTFMCEYADETATIVEFLNRWITFSQSIISTLT

Residue numbers refer to the chain shown, from its start. Numbers in names are those of the source. Where two headings read alike, the source gives them in different places.

Assay [1] addresses T1, human CD25 (IL-2Rα). Nature of the assay: Biacore; pH 6.0.
Assay [2] addresses T1, human CD25 (IL-2Rα). In words: Biacore; pH 7.4.
Assay [3] addresses XENP26096. In words: Octet.
The target in assay [4] is XENP26089. Nature of the assay: Octet.
For assay [5], the target named is XENP26086. Nature of the assay: Octet.
The target of assay [6] is XENP26108. Nature of the assay: Octet.
For assay [7], the target named is XENP26093. Nature of the assay: Octet.
Assay [8] concerns the target XENP26092. In words: Octet.
The target in assay [9] is XENP26104. Nature of the assay: Octet.
Assay [10] addresses XENP26088. In words: Octet.
Assay [11] concerns the target 24639. In words: Octet.
The target in assay [12] is 24641. Nature of the assay: Octet.
The target in assay [13] is 24643. In words: Octet.
The target of assay [14] is 24728. Nature of the assay: Octet.
For assay [15], the target named is 24725. In words: Octet.
Assay [16] has as its target 24732. In words: Octet.
In assay [17] the target is 24636. In words: Octet.
The target in assay [18] is 24729. Nature of the assay: Octet.
The target of assay [19] is 24640. In words: Octet.
The target in assay [20] is CD122:CD132. In words: Octet.
Assay [21] deals with T1, human CD25 (IL-2Rα). In words: Octet.
Assay [22] has as its target T1, human CD25 (IL-2Rα). In words: Biacore; pH 6.0.
The target in assay [23] is T1, human CD25 (IL-2Rα). Nature of the assay: Biacore; pH 7.4.
For assay [24], the target named is T1, human CD25 (IL-2Rα). Nature of the assay: Biacore; pH 7.4.
The target of assay [25] is T1, human CD25 (IL-2Rα). In words: Biacore; pH 6.0.
The target of assay [26] is CD122:CD132. In words: Octet. The source holds these as a separate data set.
For assay [27], the target named is B3. Nature of the assay: Octet.

B1: the Kd is 190 nM in assay [1] and 2 nM in assay [2].

Take B2: the Kd in [1] amounted to 16.8 nM; in [2], 9.4 nM.

With B3, the Kd came to 39.2 nM in assay [3]; 14.4 nM in assay [4]; 16.9 nM in assay [5]; 27.7 nM in [6]; 21.3 nM in assay [7]; 26.4 nM in assay [8]. For the same molecule, the Kd in [9] was found to be 14.7 nM; in [10], 16.6 nM; in [11] it was 8.04 nM; in assay [12], 12.7 nM; in assay [13] it was 26.6 nM; in [14] it was 41.8 nM. In addition, the Kd stood at 19.6 nM in assay [15]; 91.2 nM in assay [16]; 14.5 nM in assay [17]; 25.5 nM in [18]; 1.14 nM in assay [19].

For B4, the results for the Kd in [20] and in assay [21] were 57.3 nM and 28.5 nM, respectively.

Regarding B5, the values for the Kd in assay [20] and in assay [21] were 36.4 nM and 14.1 nM, respectively.

Consider B6, for which the Kd stood at 31.1 nM in [22] and 172 nM in assay [23].

In turn, B7 yielded a Kd in assay [24] of 75.4 nM.

For B8, the Kd in assay [22] is 2470 nM; in assay [23] it was 196 nM.

In [24], B9 had a Kd of 81 nM.

B10: the Kd in assay [24] worked out at 1110 nM.

In the case of B11, binding in assay [25] was characterised by a dissociation constant (Kd) of 319 nM.

Regarding B12, the Kd in assay [24] came out at 326 nM.

The molecule B13 displayed a Kd in assay [25] of 2430 nM.

Turning to B14, the Kd in [22] came to 1710 nM; in assay [23], 1240 nM.

B15: the Kd in [22] was 533 nM; in assay [23] it was 458 nM.

Turning to B16, the Kd in assay [24] was 5950 nM.

In assay [24], B17 returned a Kd of 280 nM.

The molecule B18 yielded a Kd in assay [25] of 57200 nM.

Turning to B19, the affinity in assay [25], expressed as Kd, was 83 nM.

On to B20, for which the results for the Kd in [22] and in [23] were 489 nM and 98.3 nM, respectively.

As for B21, in assay [24], the Kd was 139 nM.

Consider B22, for which the affinity in [24], expressed as Kd, was 214 nM. This Kd is about 1.5-fold higher than that of the molecule before.

In turn, B23 displayed a Kd in [25] of 128 nM.

In turn, B24 came in with a Kd in assay [25] of 30300 nM.

As to B25, in assay [25], the Kd was 1710 nM. This Kd is about 18-fold lower than that of the molecule before.

B26: in assay [24], binding was characterised by a dissociation constant (Kd) of 149 nM.

Regarding B27, binding in assay [25] was characterised by a dissociation constant (Kd) of 2630 nM.

In assay [22], B28 displayed a Kd of 84.6 nM.

For the molecule B29, the figures for the dissociation constant (Kd) in assay [26] and in assay [27] were 146 nM and 1.33 nM, respectively.
